Test results reported in patent US20150284438A1 (BIOVALENCE SDN BHD, published 2015).

Assays:
[1] = target: T1, DEN2 cNS2B-NS3pro complex (Dengue virus 2 (DEN2 / DENV-2), UniProt P14340 1394-1440; P14340 1476-1660)
T1 sequence 1: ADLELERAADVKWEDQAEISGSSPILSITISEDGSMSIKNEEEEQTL
T1 sequence 2: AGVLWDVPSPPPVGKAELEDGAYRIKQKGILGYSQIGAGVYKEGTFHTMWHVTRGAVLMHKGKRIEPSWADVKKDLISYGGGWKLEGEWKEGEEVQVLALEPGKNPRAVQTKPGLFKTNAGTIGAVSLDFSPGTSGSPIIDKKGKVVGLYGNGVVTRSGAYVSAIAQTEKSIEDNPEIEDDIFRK

[2] = target: T1, DEN2 cNS2B-NS3pro complex; assay: cell-based or functional assay

B1: RetroMAD1 (other)
chain: MGRICRCICGRGICRCICGVPGVGVPGVGGATGSDVNFDLSTATAKTYTKFIEDFRATLPFSHKVYDIPLLYSTISDSRRFILLDLTSYAYETISVAIDVTNVYVVAYRTRDVSYFFKESPPEAYNILFKGTRKITLPYTGNYENLQTAAHKIRENIDLGLPALSSAITTLFYYNAQSAPSALLVLIQTTAEAARFKYIERHVAKYVATNFKPNLAIISLENQWSALSKQIFLAQNQGGKFRNPVDLIKPTGERFQVTNVDSDVVKGNIKLLLNSRASTADENFITTMTLLGESVVEFPWALWKTMLKELGTMALHAGKAALGAAADTISQGTQVPGVGVPGVGKLAAALEHHHHHH
Ki [1]: 2.49 µM
IC50 of NS2B-NS3 protease inhibition [2]: 4.99 µM
